Measured values reported in patent publication US20220088075A1 (University of Pennsylvania, published 2022).

B1: CAR5 soluble scFv (humanized anti-EGFRvIII scFv, VH1-VK2) (scFv)
scFv: EIQLVQSGAEVKKPGATVKISCKGSGFNIEDYYIHWVQQAPGKGLEWMGRIDPENDETKYGPIFQGRVTITADTSTNTVYMELSSLRSEDTAVYYCAFRGGVYWGQGTTVTVSSGGGGSGGGGSGGGGSGGGGSDVVMTQSPLSLPVTLGQPASISCKSSQSLLDSDGKTYLNWLQQRPGQSPRRLISLVSKLDSGVPDRFSGSGSGTDFTLKISRVEAEDVGVYYCWQGTHFPGTFGGGTKVEIKGSHHHHHHHH
notes: also called CAR5 scFv
B2: CAR8 soluble scFv (humanized anti-EGFRvIII scFv, VK2-VH1) (scFv)
scFv: DVVMTQSPLSLPVTLGQPASISCKSSQSLLDSDGKTYLNWLQQRPGQSPRRLISLVSKLDSGVPDRFSGSGSGTDFTLKISRVEAEDVGVYYCWQGTHFPGTFGGGTKVEIKGGGGSGGGGSGGGGSGGGGSEIQLVQSGAEVKKPGATVKISCKGSGFNIEDYYIHWVQQAPGKGLEWMGRIDPENDETKYGPIFQGRVTITADTSTNTVYMELSSLRSEDTAVYYCAFRGGVYWGQGTTVTVSSGSHHHHHHHH
notes: also called CAR8 scFv
B3: CAR3 soluble scFv (humanized anti-EGFRvIII scFv, VH5-VK2) (scFv)
scFv: EIQLVQSGAEVKKPGESLRISCKGSGFNIEDYYIHWVRQMPGKGLEWMGRIDPENDETKYGPIFQGHVTISADTSINTVYLQWSSLKASDTAMYYCAFRGGVYWGQGTTVTVSSGGGGSGGGGSGGGGSGGGGSDVVMTQSPLSLPVTLGQPASISCKSSQSLLDSDGKTYLNWLQQRPGQSPRRLISLVSKLDSGVPDRFSGSGSGTDFTLKISRVEAEDVGVYYCWQGTHFPGTFGGGTKVEIKGSHHHHHHHH
notes: also called CAR3 scFv
B4: CAR10 (chimeric antigen receptor with anti-EGFRvIII clone 139 scFv), expressed on Jurkat E6 cells or primary human T cells (other)
chain: DIQMTQSPSSLSASVGDRVTITCRASQGIRNNLAWYQQKPGKAPKRLIYAASNLQSGVPSRFTGSGSGTEFTLIVSSLQPEDFATYYCLQHHSYPLTSGGGTKVEIKRTGSTSGSGKPGSGEGSEVQVLESGGGLVQPGGSLRLSCAASGFTFSSYAMSWVRQAPGKGLEWVSAISGSGGSTNYADSVKGRFTISRDNSKNTLYLQMNSLRAEDTAVYYCAGSSGWSEYWGQGTLVTVSSTTTPAPRPPTPAPTIASQPLSLRPEACRPAAGGAVHTRGLDFACDIYIWAPLAGTCGVLLLSLVITLYCKRGRKKLLYIFKQPFMRPVQTTQEEDGCSCRFPEEEEGGCELRVKFSRSADAPAYKQGQNQLYNELNLGRREEYDVLDKRRGRDPEMGGKPRRKNPQEGLYNELQKDKMAEAYSEIGMKGERRRGKGHDGLYQGLSTATKDTYDALHMQALPPR
B5: CAR2 soluble scFv (humanized anti-EGFRvIII scFv, VK4-VH1) (scFv)
scFv: DVVMTQSPDSLAVSLGERATINCKSSQSLLDSDGKTYLNWLQQKPGQPPKRLISLVSKLDSGVPDRFSGSGSGTDFTLTISSLQAEDVAVYYCWQGTHFPGTFGGGTKVEIKGGGGSGGGGSGGGGSGGGGSEIQLVQSGAEVKKPGATVKISCKGSGFNIEDYYIHWVQQAPGKGLEWMGRIDPENDETKYGPIFQGRVTITADTSTNTVYMELSSLRSEDTAVYYCAFRGGVYWGQGTTVTVSSGSHHHHHHHH
notes: also called CAR2 scFv
B6: CAR4 soluble scFv (humanized anti-EGFRvIII scFv, VK2-VH5) (scFv)
scFv: DVVMTQSPLSLPVTLGQPASISCKSSQSLLDSDGKTYLNWLQQRPGQSPRRLISLVSKLDSGVPDRFSGSGSGTDFTLKISRVEAEDVGVYYCWQGTHFPGTFGGGTKVEIKGGGGSGGGGSGGGGSGGGGSEIQLVQSGAEVKKPGESLRISCKGSGFNIEDYYIHWVRQMPGKGLEWMGRIDPENDETKYGPIFQGHVTISADTSINTVYLQWSSLKASDTAMYYCAFRGGVYWGQGTTVTVSSGSHHHHHHHH
notes: also called CAR4 scFv
B7: CAR1 soluble scFv (humanized anti-EGFRvIII scFv, VH1-VK4) (scFv)
scFv: EIQLVQSGAEVKKPGATVKISCKGSGFNIEDYYIHWVQQAPGKGLEWMGRIDPENDETKYGPIFQGRVTITADTSTNTVYMELSSLRSEDTAVYYCAFRGGVYWGQGTTVTVSSGGGGSGGGGSGGGGSGGGGSDVVMTQSPDSLAVSLGERATINCKSSQSLLDSDGKTYLNWLQQKPGQPPKRLISLVSKLDSGVPDRFSGSGSGTDFTLTISSLQAEDVAVYYCWQGTHFPGTFGGGTKVEIKGSHHHHHHHH
notes: not tied in words; also called CAR1 scFv

Assays:
[1] = biological target: T1, wild type hEGFR (human EGFR wild type) on transiently transfected HEK293F cells (human, UniProt P00533 25-1210); test: FACS, purified His-tagged scFv on HEK293F cells transiently transfected with wild type hEGFR, anti-poly His PE
T1 construct: whole, on cells; also called wild type EGFR
Description: (§1) HEK293F suspension cells were transiently transfected with either wild type hEGFR or hEGFRvIII and were harvested 2 days after transfection. Approximately 5e5 cells/per well were transferred to a BD Falcon 96 well plate. The cells were spun down at 900 rpm (Sorval Legend XT centrifuge) for 3 minutes. The supernatant was removed. Anti-EGFRvIII scFv protein samples were diluted in DPBS with 5% FBS. The samples were added into the wells, mixed and incubated for 1 hour. The cells were washed twice in the DPBS with 5% FBS. The cells were incubated with anti-poly His PE (R&D) for 1 hour, washed twice before FACS analysis (LSRII from BD Biosciences).

[2] = biological target: T2, hEGFRvIII (human epidermal growth factor receptor variant III) on transiently transfected HEK293F cells (human, UniProt P00533 25-1210); test: FACS, purified His-tagged scFv on HEK293F cells transiently transfected with hEGFRvIII, anti-poly His PE
T2 construct: whole, on cells; also called human EGFRvIII
Description: as §1

[3] = biological target: T3, EGFRvIII-Fc fusion protein (UniProt P00533 25-645, limits assumed); test: flow cytometry, Jurkat E6 cells electroporated with CAR vector, titrated EGFRvIII-Fc, PE anti-human IgG Fc
T3 construct: not shown: detected with PE anti-human IgG Fc
Description: Jurkat E6 cells were electroporated with either CAR9 vector or CAR10 vector using Amaxa Cell Line Nucleofector Kit V (Lonza, Colgne AG, Germany) and program X-001. One day after the transfection, 0.5×10⁶ cells were placed into each well of a V-shape 96 well plate (Greiner Bio-One, Germany) in 0.2 ml FACS buffer (DPBS buffer containing 5% FBS) and incubated for 10 minutes at room temperature. Cells were then spun down and resuspended in 0.2 ml of the FACS buffer with different concentrations of EGFRvIII-Fc or EGFRwt-Fc and incubated at 4° C. for 30 minutes. Cells were then washed with FACS buffer three times, and incubated with 0.2 ml of the FACS buffer with 2 μl of PE anti-human IgG Fc (Jackson ImmunoResearch Laboratories, West Grove, Pa.) for 30 minutes at 4° C. in the dark. After washing with 0.2 ml of FACS buffer three times, cells were analyzed on a LSRII (BD Biosciences, San Jose, Calif.) machine using the FACSDiva software (BD Biosciences, San Jose, Calif.). Immunofluorescence staining was analyzed as the relative log fluorescence of live cells, and the percentage of the PE positive cells were measured.

Row | Binder | binding result [1] | binding result [2] | fold lower binding compared to CAR9 [3] [fold]
1 | B1 | no binding | binds | 
2 | B2 | no binding | binds | 
3 | B3 | no binding | binds | 
4 | B4 |  |  | ~40
5 | B5 | no binding | binds | 
6 | B6 | no binding | binds | 
7 | B7 | no binding | binds | 
